The target of the test is human BCMA (huBCMA), full length, on cells (human) (UniProt Q02223). As to the kind of experiment: FACS, H929 cells, negative control.
human BCMA (huBCMA), full length, on cells (human), sequence (Q02223 whole entry N81S): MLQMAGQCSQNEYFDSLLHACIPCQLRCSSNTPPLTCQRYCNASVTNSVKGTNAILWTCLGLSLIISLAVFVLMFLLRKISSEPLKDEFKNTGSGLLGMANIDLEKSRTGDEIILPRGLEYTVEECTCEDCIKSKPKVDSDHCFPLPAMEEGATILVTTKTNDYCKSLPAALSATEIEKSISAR

The substance hu IgG1 (antibody) yielded an MFI of 8.

The values above are taken from US20170165373A1.
